# Assays:
# [1] = target: T1, human IL-17A homodimer (IL-17 A/A) (human, UniProt Q16552 24-155); assay: cell-based or functional assay
# T1 sequence: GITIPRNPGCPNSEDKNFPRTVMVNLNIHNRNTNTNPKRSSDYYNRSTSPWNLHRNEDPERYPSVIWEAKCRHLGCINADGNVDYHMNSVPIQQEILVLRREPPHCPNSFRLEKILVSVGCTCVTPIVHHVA
# [2] = target: T2, human IL-17A/F heterodimer (human, UniProt Q16552 24-155; Q96PD4 31-163); assay: cell-based or functional assay
# T2 sequence 1: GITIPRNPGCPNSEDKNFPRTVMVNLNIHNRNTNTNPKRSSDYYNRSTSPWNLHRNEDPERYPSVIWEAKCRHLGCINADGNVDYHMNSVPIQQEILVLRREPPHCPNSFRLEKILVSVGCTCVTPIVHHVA
# T2 sequence 2: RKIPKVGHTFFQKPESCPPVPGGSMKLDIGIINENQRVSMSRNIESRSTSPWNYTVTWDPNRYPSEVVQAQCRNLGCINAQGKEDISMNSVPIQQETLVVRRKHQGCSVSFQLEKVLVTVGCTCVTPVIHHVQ
# [3] = target: T3, human TNF-α (human, UniProt P01375 77-233); assay: cell-based or functional assay
# T3 sequence (P01375 77-233 limits assumed): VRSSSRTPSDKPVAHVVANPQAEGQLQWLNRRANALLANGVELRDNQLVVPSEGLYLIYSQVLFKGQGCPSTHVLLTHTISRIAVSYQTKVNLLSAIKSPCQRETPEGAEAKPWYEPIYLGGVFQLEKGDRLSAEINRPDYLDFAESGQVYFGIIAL
# [4] = target: T4, rat TNF (Rat, UniProt P16599 80-235); assay: cell-based or functional assay
# T4 sequence (looked up): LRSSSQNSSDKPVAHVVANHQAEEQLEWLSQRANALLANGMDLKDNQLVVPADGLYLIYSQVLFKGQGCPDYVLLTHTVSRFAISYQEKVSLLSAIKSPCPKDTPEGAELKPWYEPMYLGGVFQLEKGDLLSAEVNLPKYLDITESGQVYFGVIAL
# [5] = target: T1, human IL-17A homodimer (IL-17 A/A); assay: cell-based or functional assay; remark: listed apart in the source
# [6] = target: T5, rat IL-17 (Rat, UniProt Q61453 18-150, limits assumed); assay: cell-based or functional assay
# T5 sequence (looked up): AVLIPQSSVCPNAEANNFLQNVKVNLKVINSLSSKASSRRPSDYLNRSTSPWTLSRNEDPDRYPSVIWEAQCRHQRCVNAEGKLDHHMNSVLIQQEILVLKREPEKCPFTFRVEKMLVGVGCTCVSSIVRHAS
# [7] = target: T3, human TNF-α; assay: cell-based or functional assay; remark: listed apart in the source
# [8] = target: T6, monkey (Rhesus/Cynomolgus) IL-17 (Monkey (Rhesus/Cynomolgus), UniProt F6T3G5 24-155); assay: cell-based or functional assay
# T6 sequence: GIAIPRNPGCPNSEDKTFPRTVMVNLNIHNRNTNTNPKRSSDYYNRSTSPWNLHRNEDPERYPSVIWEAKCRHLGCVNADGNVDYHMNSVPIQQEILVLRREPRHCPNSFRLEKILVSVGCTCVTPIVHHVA
# [9] = target: monkey (Rhesus/Cynomolgus) TNF (Monkey (Rhesus/Cynomolgus), UniProt P48094 77-233); assay: cell-based or functional assay
# monkey (Rhesus/Cynomolgus) TNF, sequence (P48094 77-233 limits assumed): as the sequence (P01375 77-233 limits assumed) above, with R44T, T72N, R138L counted along it
# [10] = target: T7, mouse IL-17 (Mouse, UniProt Q62386 26-158, limits assumed); assay: cell-based or functional assay
# T7 sequence (looked up): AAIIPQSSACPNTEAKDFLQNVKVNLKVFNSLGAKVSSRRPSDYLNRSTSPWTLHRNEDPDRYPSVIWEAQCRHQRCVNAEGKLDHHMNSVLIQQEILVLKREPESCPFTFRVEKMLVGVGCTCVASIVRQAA
# [11] = target: T8, rabbit IL-17 (Rabbit, UniProt G1SLF2 24-153); assay: cell-based or functional assay
# T8 sequence: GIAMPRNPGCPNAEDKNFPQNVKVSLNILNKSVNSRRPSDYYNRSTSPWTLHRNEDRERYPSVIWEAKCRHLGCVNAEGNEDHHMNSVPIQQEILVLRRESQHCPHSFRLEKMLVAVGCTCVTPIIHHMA
# [12] = target: T9, rabbit TNF (Rabbit, UniProt P04924 80-235, limits assumed); assay: cell-based or functional assay
# T9 sequence (looked up): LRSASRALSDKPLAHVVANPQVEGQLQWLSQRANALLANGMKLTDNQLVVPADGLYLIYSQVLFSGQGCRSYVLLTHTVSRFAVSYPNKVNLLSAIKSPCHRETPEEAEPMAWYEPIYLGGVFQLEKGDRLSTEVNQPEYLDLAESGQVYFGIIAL
# [13] = target: T10, mouse TNF (Mouse, UniProt P06804 80-235); assay: cell-based or functional assay
# T10 sequence (looked up): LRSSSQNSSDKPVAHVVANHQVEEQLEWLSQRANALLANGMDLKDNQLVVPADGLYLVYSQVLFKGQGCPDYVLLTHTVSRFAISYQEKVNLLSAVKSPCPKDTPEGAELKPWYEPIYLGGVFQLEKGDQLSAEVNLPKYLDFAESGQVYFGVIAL
# [14] = target: T8, rabbit IL-17; assay: Biacore SPR, 3 experiments
binder,measurement,setting,value
"ABBV-257 (HMAK199-1-GS10-H10F7-M11 DVD-Ig binding protein) (bispecific antibody, N-linked glycans on the heavy chain (position not given)) heavy: EVQLVQSGAEVKKPGASVKVSCKASGYTFANYGIIWVRQAPGQGLEWMGWINTYTGKPTYAQKFQGRVTMTTDTSTSTAYMELSSLRSEDTAVYYCARKLFTTMDVTDNAMDYWGQGTTVTVSSGGGGSGGGGSEVQLVQSGAEVKKPGSSVKVSCKASGYTFTDYEIHWVRQAPGQGLEWMGVNDPESGGTFYNQKFDGRVTLTADESTSTAYMELSSLRSEDTAVYYCTRYSKWDSFDGMDYWGQGTTVTVSSASTKGPSVFPLAPSSKSTSGGTAALGCLVKDYFPEPVTVSWNSGALTSGVHTFPAVLQSSGLYSLSSVVTVPSSSLGTQTYICNVNHKPSNTKVDKKVEPKSCDKTHTCPPCPAPEAAGGPSVFLFPPKPKDQLMISRTPEVTCVVVDVSHEDPEVKFNWYVDGVEVHNAKTKPREEQYNSTYRVVSVLTVLHQDWLNGKEYKCKVSNKALPAPIEKTISKAKGQPREPQVYTLPPSREEMTKNQVSLTCLVKGFYPSDIAVEWESNGQPENNYKTTPPVLDSDGSFFLYSKLTVDKSRWQQGNVFSCSVLHEALHNHYTQKSLSLSPGK light: DIQMTQSPSSLSASVGDRVTITCRASQDISQYLNWYQQKPGKAPKLLIYYTSRLQSGVPSRFSGSGSGTDFTLTISSLQPEDFATYFCQQGNTWPPTFGQGTKLEIKRGGSGGGGSGDIQMTQSPSSLSASVGDRVTITCRASSGIISYIDWFQQKPGKAPKRLIYATFDLASGVPSRFSGSGSGTDYTLTISSLQPEDFATYYCRQVGSYPETFGQGTKLEIKRTVAAPSVFIFPPSDEQLKSGTASVVCLLNNFYPREAKVQWKVDNALQSGNSQESVTEQDSKDSTYSLSSTLTLSKADYEKHKVYACEVTHQGLSSPVTKSFNRGEC","Mean IC50, IL-17 dependent induction of IL-6 in fibroblasts",[1],0.026 nM
same,"Mean IC50, IL-17 dependent induction of IL-6 in fibroblasts",[2],0.11 nM
same,"Mean IC50, TNF-induced lethality of L929 cells",[3],0.025 nM
same,"IC50, in vitro neutralization assay",[4],> 1000 nM
same,"IC50, in vitro neutralization assay",[5],0.026 nM
same,"IC50, in vitro neutralization assay",[6],0.135 nM
same,"IC50, in vitro neutralization assay",[7],0.025 nM
same,"IC50, in vitro neutralization assay",[8],0.032 nM
same,"IC50, in vitro neutralization assay",[9],0.025 nM
same,"IC50, in vitro neutralization assay",[10],0.239 nM
same,"IC50, in vitro neutralization assay",[11],11.4 nM
same,"IC50, in vitro neutralization assay",[12],> 1000 nM
same,"IC50, in vitro neutralization assay",[13],> 1000 nM
same,Kd,[14],3.3 nM
